Reference: US20060204498A1 (MERCK SERONO, published 2006)

T1: human CXCR3 (human, UniProt P49682 1-368)
T1 construct: whole, on cells; in FACS and chemotaxis on whole transfected HEK or L1.2 cells; also called GPR9
T1 sequence (looked up): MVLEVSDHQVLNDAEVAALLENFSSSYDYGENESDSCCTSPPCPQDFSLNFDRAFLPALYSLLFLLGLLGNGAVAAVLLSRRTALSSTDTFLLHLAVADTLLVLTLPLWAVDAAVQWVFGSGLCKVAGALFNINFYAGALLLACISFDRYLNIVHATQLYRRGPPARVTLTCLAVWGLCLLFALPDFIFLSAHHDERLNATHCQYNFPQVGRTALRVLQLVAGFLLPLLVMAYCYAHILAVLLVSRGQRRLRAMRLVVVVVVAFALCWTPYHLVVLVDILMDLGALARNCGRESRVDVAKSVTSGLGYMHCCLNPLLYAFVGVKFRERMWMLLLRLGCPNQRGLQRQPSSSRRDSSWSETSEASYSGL


Key:
human CXCR3 [1] = biological target: T1, human CXCR3; experiment: equilibrium competition receptor binding, SPA, [125I]-CXCL11 tracer, membranes of CXCR3-expressing HEK cells
Description: The assays were carried out on membranes from HEK cells stably expressing CXCR3 using a Scintillation Proximity Assay (SPA), with [¹²⁵I]-CXCL11 as tracer. Radiolabelled CXCL11 (recombinant human I-TAC; Peprotech) was generated and tested according to the [¹²⁵I] supplier (Amersham; specific activity of […]), also to check for CXCR3-expressing HEK and L1.2 clones positively stained during FACS analysis.
Competitors were prepared by serial dilutions (range from 10⁻⁶ to 10⁻¹² M) of the unlabelled CXCL11, or one of its mutant, in the binding buffer (50 mM HEPES pH 7.2, 1 mM CaCl₂, 5 mM MgCl₂, 0.15 M NaCl and 0.5% Bovine Serum Albumin). Wheat germ SPA beads (Amersham) were solubilised in PBS to 50 mg/ml, and diluted in the binding buffer to a 10 mg/ml, and the final concentration in the assay was 0.25 mg/well. Cell membranes expressing CXCR3 were stored at −80° C. and diluted in the binding buffer to 20 μg/ml. Equal volumes of membrane and beads stocks were mixed before performing the assay to reduce background. The final membrane concentration was 5 μg/well and that of [¹²⁵I]-CXCL11 was 0.05 nM. The plates were incubated at room temperature with agitation for 4 hours. Radioactivity was counted (1 minute/well) in a beta counter. Data from triplicate samples were analysed using Prism® software (GraphPad).
Finally, an equilibrium competition receptor-binding assay was performed to compare the properties of the muteins on the binding of the specific receptor CXCR3 (FIG. 3). Samples containing a constant amount of radiolabelled, commercial CXCL11 were mixed with serial dilutions of CXCL11-WT, or of one of the muteins, and then incubated with membranes prepared from CXCR3-expressing HEK cells. […] Therefore, the affinity for the receptor is substantially retained in heparin-binding defective CXCL11-WT carboxyl-terminal mutants, whilst the mutations in amino-terminus affect specifically receptor binding, a feature which appears as clearly distinct.

human CXCR3 [2] = biological target: T1, human CXCR3; experiment: radioligand equilibrium binding on CXCR3-transfected HEK and L1.2 clones

Row | reduction in the affinity for CXCR3 against CXCL11-WT (human CXCR3 [1]) | Binder | other results
1 | – | mature human CXCL11 (CXCL11-WT) (ligand, 73 residues with no additional residues; also called hCXCL11; I-TAC) FPMFKRGRCLCIGPGVKAVKVADIEKASIMYPSNNCDKIEVIITLKENKGQRCLNPKSKQARLIIKKVERKNF | binding result (human CXCR3 [1]): binds
2 | – | [125I]-CXCL11 (radiolabelled recombinant human I-TAC; Peprotech) (ligand, UniProt O14625 22-94, looked up, [125I] label, site not stated, Commercial protein; also called Radiolabelled CXCL11; radiolabelled, commercial CXCL11) FPMFKRGRCLCIGPGVKAVKVADIEKASIMYPSNNCDKIEVIITLKENKGQRCLNPKSKQARLIIKKVERKNF | binding result (human CXCR3 [2]): binds
3 | ≤ 1 order of magnitude | CXCL11-3B3 (ligand, Mutein of mature human CXCL11; E. coli, leader cleaved with caspase 8; also called CXCLII-3B3) FPMFKRGRCLCIGPGVKAVKVADIEKASIMYPSNNCDKIEVIITLKENKGQRCLNPASAQAALIIKKVERKNF | –
4 | ≤ 1 order of magnitude | CXCL11-2B3 (ligand, Mutein of mature human CXCL11; E. coli, leader cleaved with caspase 8; also called CXCLII-2B3) FPMFKRGRCLCIGPGVKAVKVADIEKASIMYPSNNCDKIEVIITLAENAGQACLNPKSKQARLIIKKVERKNF | –
5 | ≤ 1 order of magnitude | CXCL11-4B4 (ligand, Mutein of mature human CXCL11; E. coli, leader cleaved with caspase 8; also called CXCLII-4B4) FPMFKRGRCLCIGPGVKAVKVADIEKASIMYPSNNCDKIEVIITLKENKGQRCLNPKSKQARLIIAAVEAANF | –
